This is an account of results in patent US20070244297A1.

Read-outs that look alike come from different tables or passages of the source.

The target in assay [1] is human neuronal calcium channel α1B-1 subunit (expressed alone) (human), Q00975.
The target of assay [2] is T1, recombinant human neuronal calcium channel α1B-1α2b (human).
Assay [3] addresses recombinant human neuronal calcium channel α1B-1β1-3 (human), Q00975. In words: 125I-ω-CgTx GVIA saturation binding to transiently transfected HEK293 cells.
Assay [4] addresses T2, recombinant human neuronal calcium channel α1B-1α2bβ1-2 (human), Q00975. Described as above.
Assay [5] has as its target recombinant human neuronal calcium channel α1B-2β1-3 (human), Q00975. The assay is described as above.
For assay [6], the target named is recombinant human neuronal calcium channel α1B-2α2bβ1-2 (human). The assay is described as above.
Assay [7] has as its target recombinant human neuronal calcium channel α1B-1β1-2 (human), Q00975. The description is as above.
The target in assay [8] is T1, recombinant human neuronal calcium …. The assay is described as above.
In assay [9] the target is recombinant human neuronal calcium channel α1B-2α2bβ1-3 (human), Q00975. Described as above.
Assay [10] concerns the target recombinant human neuronal calcium channel α1B-2β1-2 (human), Q00975. The assay is described as above.
The target in assay [11] is recombinant human neuronal calcium channel α1B-1α2bβ1-3 (human). Described as above.
Assay [12] deals with T2, recombinant human neuronal calcium ….

Broadly, the Kd is the constant that tells how readily two partners part at equilibrium. As for CKSPGSSCSPTSYNCCRSCNPYTKRCYG (modifications not checked) [125I-ω-CgTx GVIA, P01522 46-73], in assay [1], the Bmax came to 757 sites/cell and the Kd worked out at 0.0317 nM. Moreover, in [2], the Bmax stood at 2260 sites/cell and the equilibrium dissociation constant (Kd) stood at 0.0846 nM. In addition, in assay [3], the Bmax was determined as 8730 sites/cell, the dissociation constant (Kd) was 0.0179 nM and the fold change of surface binding against α1B-1 alone was 10 fold. In addition, in assay [4], the Bmax stood at 45300 sites/cell, the Kd is 0.0549 nM, the fold change of binding sites per cell against α1B-2α2bβ1-2 turned out to be 2.5 fold and the fold change of surface receptor density against α1B-1β1-2 was 8 fold. In [5], the Bmax amounted to 2940 sites/cell and the Kd is 0.0222 nM. Further, in assay [6], the Bmax came to 19400 sites/cell, the Kd came out at 0.053 nM and the fold change of surface receptor density against α1B-2β1-2 was 9 fold. In addition, in assay [7], the Bmax came to 5760 sites/cell, the Kd is 0.0179 nM and the fold change of surface binding against α1B-1 alone worked out at 8 fold. Also, the fold change of binding capacity against α1B-1 alone in assay [8] is 3 fold. In assay [9], the Bmax turned out to be 37700 sites/cell, the Kd amounted to 0.0443 nM, the fold change of binding capacity against α1B-2α2bβ1-2 was 2 fold and the fold change of surface receptor density against α1B-2β1-3 was determined as 13 fold. In assay [10], the Bmax was 2130 sites/cell and the Kd worked out at 0.0164 nM. In assay [11], the Bmax came out at 91000 sites/cell, the equilibrium dissociation constant (Kd) came out at 0.0532 nM, the fold change of binding capacity against α1B-1α2bβ1-2 was 2 fold and the fold change of binding sites per cell against α1B-2α2bβ1-3 turned out to be 2.5 fold. Further, the fold change of surface receptor density against α1B-1β1-3 in [11] was 10 fold.
For CKSPGSSCSPTSYNCCRSCNPYTKRCYG (modifications not checked) [ω-CgTx, P01522 46-73], in assay [12], the dissociation constant (Kd) came out at 0.0546 nM and the binding capacity (Bmax) (sites per cell) worked out at 28700.
